In the supplement of paper PMC10724198:
± gives the standard deviation of the averaged measurements.

Tested on: Saccharomyces cerevisiae
Assay: protein stability index of tFT-peptide fusion (C-terminal peptide) (PSI (0-1 scale)); higher = more stable (slower turnover)
Details: temperature: 30 C
Description: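 MPS profiling in S. cerevisiae of the yeast C-terminome library: the last 12 aa of each annotated ORF are fused to the C-terminus of a sfGFP-mCherry timer, after a GGGS linker. Cells are FACS-sorted into 8 mCherry/sfGFP bins and deep-sequenced. PSI runs from 0 (unstable) to 1 (stable); wild type and das1Δ backgrounds, two technical replicates each.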

[1] = genetic background: das1 deletion

Row | Sequence | protein stability index [1] | protein stability index (genetic background: wild type)
1 | KENSRSWIIYLL [YGL034C C-terminal 12 aa] | 0.653 ± 0.016 | 0.556 ± 0.03
2 | KESSTSSEKQIA [THI72 C-terminal 12 aa] | 0.67657 ± 0.00024 | 0.6804 ± 0.0025
3 | KFSTRMKLAHGK [SLX1 C-terminal 12 aa] | 0.698 ± 0.019 | 0.728 ± 0.021
4 | KGIKGFFHRIFD [YGR126W C-terminal 12 aa] | 0.6963 ± 0.002 | 0.68 ± 0.018
5 | KHLAKALADLIS [JHD1 C-terminal 12 aa] | 0.717 ± 0.018 | 0.701 ± 0.032
6 | KICVTLIVNELI [YLR342W-A C-terminal 12 aa] | 0.4662 ± 0.0016 | 0.39 ± 0.028
7 | KIHTAAIAAFKQ [ATP12 C-terminal 12 aa] | 0.7013 ± 0.0055 | 0.612 ± 0.033
8 | KILKGAEKKPQL [CNA1 C-terminal 12 aa] | 0.689 ± 0.0099 | 0.707 ± 0.022
9 | KISTHSNAPSPG [SMA1 C-terminal 12 aa] | 0.669 ± 0.015 | 0.675 ± 0.022
10 | KIWVNIYSTPTS [PLS1 C-terminal 12 aa] | 0.6827 ± 0.0066 | 0.705 ± 0.035
11 | KKKGLFGRMKKK [YMR295C C-terminal 12 aa] | 0.719 ± 0.028 | 0.69 ± 0.067
12 | KKKKPAAEGAAK [TMA22 C-terminal 12 aa] | 0.696 ± 0.026 | 0.708 ± 0.043
13 | KKKSRAKKPGNV [HDA3 C-terminal 12 aa] | 0.685 ± 0.011 | 0.734 ± 0.041
14 | KKKVEFSFPDDI [MIL1 C-terminal 12 aa] | 0.701 ± 0.0087 | 0.73 ± 0.016
15 | KKPLFKRKVLQI [YNL205C C-terminal 12 aa] | 0.6883 ± 0.0025 | 0.422 ± 0.011
16 | KKVQSYTLQEDY [BUD13 C-terminal 12 aa] | 0.695 ± 0.015 | 0.692 ± 0.03
17 | KLDDIIRARRSR [TGL3 C-terminal 12 aa] | 0.7405 ± 0.0066 | 0.692 ± 0.034

Row | Sequence | protein stability index [1] | protein stability index (genetic background: wild type)
18 | KLENDISVKVED [NTG1 C-terminal 12 aa] | 0.6863 ± 0.0054 | 0.674 ± 0.014
19 | KLLEESKGLLDV [YJR079W C-terminal 12 aa] | 0.701 ± 0.023 | 0.699 ± 0.013
20 | KNFQEHLRSING [AGC1 C-terminal 12 aa] | 0.695 ± 0.01 | 0.702 ± 0.032
21 | KNHEMGEEETKF [TCB1 C-terminal 12 aa] | 0.715 ± 0.0045 | 0.721 ± 0.041
22 | KNNYSSRNSNIY [MSS116 C-terminal 12 aa] | 0.713 ± 0.0098 | 0.711 ± 0.028
23 | KNRKRVLGVAYL [PXP3 C-terminal 12 aa] | 0.783 ± 0.022 | 0.837 ± 0.063
24 | KNWGPKARPNTS [TRM1 C-terminal 12 aa] | 0.698 ± 0.016 | 0.655 ± 0.011
25 | KPIEKVYFNRGI [FSF1 C-terminal 12 aa] | 0.713 ± 0.051 | 0.7368 ± 0.0054
26 | KPIGEAAAIKEK [YLH47 C-terminal 12 aa] | 0.696 ± 0.027 | 0.707 ± 0.044
27 | KQAIYTRATASE [RPS25A C-terminal 12 aa] | 0.693 ± 0.012 | 0.687 ± 0.0034
28 | KQIDVHLDKNKA [GCD7 C-terminal 12 aa] | 0.6862 ± 0.004 | 0.697 ± 0.0038
29 | KQIVFEIPSQTN [RPS7B C-terminal 12 aa] | 0.69872 ± 0.00027 | 0.673 ± 0.0084
30 | KQMYKYHIIVLF [YBL083C C-terminal 12 aa] | 0.305 ± 0.035 | 0.106 ± 0.0037
31 | KRFTTNRNGNVI [GEF1 C-terminal 12 aa] | 0.732 ± 0.022 | 0.696 ± 0.027
32 | KSCVSSLRVMAM [YNL276C C-terminal 12 aa] | 0.608 ± 0.013 | 0.597 ± 0.023
33 | KSEGGDLPHLVQ [SPS4 C-terminal 12 aa] | 0.701 ± 0.024 | 0.68 ± 0.013
34 | KSKFQERLQQGL [RET3 C-terminal 12 aa] | 0.701 ± 0.0071 | 0.6467 ± 0.0052
